According to US11034762 (CENTIVAX, dated 2021):

B1: COVID19_P21_A05 (scFv, V domains shown)
VH: QVQLVQSGAEVKKPGSSVKVSCKASGGGFITYWIGWVRQAPGQGLEWMGIIYPGDGETRYSQKFQGRVTITADESTSTAYMELSSLRSEDTAVYYCAGGSGISTPMDVWGQGTLVTVSS
VL: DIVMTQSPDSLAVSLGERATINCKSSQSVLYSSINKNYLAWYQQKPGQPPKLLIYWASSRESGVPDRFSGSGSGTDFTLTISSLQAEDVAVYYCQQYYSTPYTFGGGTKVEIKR
B2: COVID19_P22_E10 (scFv, V domains shown)
VH: QVQLVQSGAEVKKPGSSVKVSCKASGGGFITYWIGWVRQAPGQGLEWMGIIYPGDGETRYSQKFQGRVTITADESTSTAYMELSSLRSEDTAVYYCAGGSGISTPMDVWGQGTLVTVSS
VL: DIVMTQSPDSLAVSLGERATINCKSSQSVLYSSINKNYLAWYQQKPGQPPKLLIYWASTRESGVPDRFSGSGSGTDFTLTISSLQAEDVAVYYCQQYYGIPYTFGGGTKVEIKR
B3: COVID19_P10_B04 (scFv, V domains shown)
VH: QVQLVQSGAEVKKPGSSVKVSCKASGYGFISYWIGWVRQAPGQGLEWMGIIYPGDGETRYSQKFQGRVTITADESTSTAYMELSSLRSEDTAVYYCAGSDGISTPMDVWGQGTLVTVSS
VL: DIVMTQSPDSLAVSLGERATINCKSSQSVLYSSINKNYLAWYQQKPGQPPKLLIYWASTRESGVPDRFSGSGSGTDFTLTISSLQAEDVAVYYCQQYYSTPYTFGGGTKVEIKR
B4: COVID19_P21_C09 (scFv, V domains shown)
VH: QVQLVQSGAEVKKPGSSVKVSCKASGYGFISYWIGWVRQAPGQGLEWMGIIYPGDSETRYSQKFQGRVTITADESTSTAYMELSSLRSEDTAVYYCAGGSGILEPMDVWGQGTLVTVSS
VL: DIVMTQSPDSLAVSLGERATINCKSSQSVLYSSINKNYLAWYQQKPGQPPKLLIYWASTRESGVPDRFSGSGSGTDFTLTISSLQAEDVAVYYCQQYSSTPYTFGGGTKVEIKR
B5: COVID19_P09_G04 (scFv, V domains shown)
VH: QVQLVQSGAEVKKPGSSVKVSCKASGYGFITYWIGWVRQAPGQGLEWMGIIYPGDSETNYSQKFQGRVTITADESTSTAYMELSSLRSEDTAVYYCAGGSGLFTPMDVWGQGTLVTVSS
VL: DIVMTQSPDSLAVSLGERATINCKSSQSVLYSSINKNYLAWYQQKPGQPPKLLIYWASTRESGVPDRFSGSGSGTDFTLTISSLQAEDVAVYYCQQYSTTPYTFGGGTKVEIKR
B6: COVID19_P21_B11 (scFv, V domains shown)
VH: QVQLVQSGAEVKKPGSSVKVSCKASGYGFITYWIGWVRQAPGQGLEWMGIIYPGDSETRYSQKFQGRVTITADESTSTAYMELSSLRSEDTAVYYCAGSDGISTPMDVWGQGTLVTVSS
VL: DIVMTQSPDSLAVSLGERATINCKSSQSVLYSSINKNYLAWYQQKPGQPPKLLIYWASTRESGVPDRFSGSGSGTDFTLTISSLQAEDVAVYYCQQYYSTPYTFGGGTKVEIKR
B7: COVID19_P09_C08 (scFv, V domains shown)
VH: QVQLVQSGAEVKKPGSSVKVSCKASGYGFITYWIGWVRQAPGQGLEWMGIIYPGDSETRYAQKFQGRVTITADESTSTAYMELSSLRSEDTAVYYCAGGSGISTPMDVWGQGTLVTVSS
VL: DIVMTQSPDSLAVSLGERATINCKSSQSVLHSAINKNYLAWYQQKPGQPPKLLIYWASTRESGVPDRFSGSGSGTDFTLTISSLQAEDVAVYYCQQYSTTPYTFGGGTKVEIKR
B8: COVID19_P22_D06 (scFv, V domains shown)
VH: QVQLVQSGAEVKKPGSSVKVSCKASGGGFITYWIGWVRQAPGQGLEWMGIIYPGDSETRYSQKFQGRVTITADESTSTAYMELSSLRSEDTAVYYCAGGSGVLTPMDVWGQGTLVTVSS
VL: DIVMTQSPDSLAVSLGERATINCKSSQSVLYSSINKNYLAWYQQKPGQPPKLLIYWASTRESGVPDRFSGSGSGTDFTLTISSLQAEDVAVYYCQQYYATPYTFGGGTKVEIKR
B9: COVID19_P21_E08 (scFv, V domains shown)
VH: QVQLVQSGAEVKKPGSSVKVSCKASGYGFITYWIGWVRQAPGQGLEWMGIIYPGDGETRYSQKFQGRVTITADESTSTAYMELSSLRSEDTAVYYCAGGSGISTPMDVWGQGTLVTVSS
VL: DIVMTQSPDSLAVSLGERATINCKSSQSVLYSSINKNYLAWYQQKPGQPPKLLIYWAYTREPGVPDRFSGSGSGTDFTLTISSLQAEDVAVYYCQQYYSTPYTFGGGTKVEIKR
B10: COVID19_P21_E07 (scFv, V domains shown)
VH: QVQLVQSGAEVKKPGSSVKVSCKASGYGFITYWIGWVRQAPGQGLEWMGIIYPGDSETRYSQKFQGRVTITADESTSTAYMELSSLRSEDTAVYYCAGGSGISTPMDVWGQGTLVTVSS
VL: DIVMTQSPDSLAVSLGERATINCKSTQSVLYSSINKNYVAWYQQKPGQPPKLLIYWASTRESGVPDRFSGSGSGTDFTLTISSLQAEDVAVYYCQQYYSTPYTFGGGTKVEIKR
B11: COVID19_P21_A10 (scFv, V domains shown)
VH: QVQLVQSGAEVKKPGSSVKVSCKASGYGFITYWIGWVRQAPGQGLEWMGIIYPGDGEARYSQKFQGRVTITADESTSTAYMELSSLRSEDTAVYYCAGGSGISTPMDVWGQGTLVTVSS
VL: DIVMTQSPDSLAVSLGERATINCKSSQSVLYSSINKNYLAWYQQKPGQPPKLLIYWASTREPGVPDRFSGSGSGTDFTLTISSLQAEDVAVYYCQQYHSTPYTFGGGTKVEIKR
B12: COVID19_P21_H02 (scFv, V domains shown)
VH: QVQLVQSGAEVKKPGSSVKVSCKASGYGFITYWIGWVRQAPGQGLEWMGIIYPGDSETRYAQKFQGRVTITADESTSTAYMELSSLRSEDTAVYYCAGGSGLYTPMDVWGQGTLVTVSS
VL: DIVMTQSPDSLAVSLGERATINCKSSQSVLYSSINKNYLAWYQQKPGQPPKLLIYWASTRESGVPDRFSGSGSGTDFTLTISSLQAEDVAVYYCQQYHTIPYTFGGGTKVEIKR

What follows are binders tested against SARS-CoV-2 Receptor Binding Domain (RBD) protein (SARS-CoV-2, UniProt P0DTC2 319-541).
For B1, the Kd was 41.2 nM, the koff was 0.0173 s⁻¹ and the kon was 419000 M⁻¹ s⁻¹. B2 gave a Kd of 25.3 nM, a koff of 0.0058 s⁻¹ and a kon of 230000 M⁻¹ s⁻¹. Work on B3 yielded a Kd of 36.2 nM, a koff of 0.0223 s⁻¹ and a kon of 614000 M⁻¹ s⁻¹. B4 showed a Kd of 28.5 nM, a koff of 0.0157 s⁻¹ and a kon of 551000 M⁻¹ s⁻¹. Work on B5 yielded a Kd of 6.18 nM, a koff of 0.00381 s⁻¹ and a kon of 616000 M⁻¹ s⁻¹. B6 was tested, and the Kd was 26.3 nM, the koff was 0.0166 s⁻¹ and the kon was 631000 M⁻¹ s⁻¹. In the case of B7, the Kd is reported as 28.7 nM, the koff is reported as 0.0131 s⁻¹ and the kon is reported as 458000 M⁻¹ s⁻¹. B8 showed a Kd of 30.5 nM, a koff of 0.012 s⁻¹ and a kon of 410000 M⁻¹ s⁻¹. In the case of B9, the Kd is reported as 32.8 nM, the koff is reported as 0.0142 s⁻¹ and the kon is reported as 434000 M⁻¹ s⁻¹. Work on B10 yielded a Kd of 41 nM, a koff of 0.0155 s⁻¹ and a kon of 378000 M⁻¹ s⁻¹. With B11 the Kd was 46.2 nM, the koff was 0.00729 s⁻¹ and the kon was 158000 M⁻¹ s⁻¹. B12 showed a Kd of 40.3 nM, a koff of 0.0124 s⁻¹ and a kon of 308000 M⁻¹ s⁻¹.
